Conditions: Gallus gallus, Thermal, CD, whole UniProt chain shown

B1: Ovalbumin wild type, P01012 (protein)
chain: MGSIGAASMEFCFDVFKELKVHHANENIFYCPIAIMSALAMVYLGAKDSTRTQINKVVRFDKLPGFGDSIEAQCGTSVNVHSSLRDILNQITKPNDVYSFSLASRLYAEERYPILPEYLQCVKELYRGGLEPINFQTAADQARELINSWVESQTNGIIRNVLQPSSVDSQTAMVLVNAIVFKGLWEKAFKDEDTQAMPFRVTEQESKPVQMMYQIGLFRVASMASEKMKILELPFASGTMSMLVLLPDEVSGLEQLESIINFEKLTEWTSSNVMEERKIKVYLPRMKMEEKYNLTSVLMAMGITDVFSSSANLSGISSAESLKISQAVHAAHAEINEAGREVVGSAEAGVDAASVSEEFRADHPFLFCIKHIATNAVLFFGRCVSP
Tm (pH 7, Phosphate 10 mM): 69.8 °C
Tm (pH 10, Glycine-NaOH 0.1 M): 78.9 °C

— FireProtDB (doi:10.1002/pro.398)
